B1: PMDL, recombinant construct of the human parainfluenza virus 3 phosphoprotein (HPIV3 P): short P_TAI (domain or fragment)
chain: SDHKPTSKGQKKISKTTTTNTDTKGQTETQTESSETQSNVDTASKIDFLAGLVIGVSMDNDTKLIQIQNEMLNLKADLKRMDESHRRLIENQREQLSLITSLISNLKIMT
notes: source: E. coli Rosetta DE3, purified (TALON His-Tag resin, SEC Superdex 75)
B2: Zaire Ebolavirus (EBOV) phosphoprotein VP35, construct of residues 65-145 (LC8 anchor 65-82 and mult (domain or fragment)
chain: NPKTRNSQTQTDPICNHSFEEVVQTLASLATVVQQQTIASESLEQRITSLENGLKPVYDMAKTISSLNRVCAEMVAKYDLL
notes: also called VP35 65-145; EBOV VP35 65-145

Columns and labels:
SEC-MALS = target: the molecule itself; experiment: SEC-MALS
[1] = target: T1, LC8 (DYNLL1), recombinant (human, UniProt P63167 1-89); experiment: ITC; settings: both partners purified
T1 construct: also called human LC8
T1 sequence (P63167 whole entry): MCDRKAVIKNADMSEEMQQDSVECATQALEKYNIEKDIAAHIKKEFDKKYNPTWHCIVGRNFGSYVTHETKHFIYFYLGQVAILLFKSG

Binder | stoichiometry N (SEC-MALS) | Kd [1]
B1 | 4 | ~50 µM
B2 | 4 | 0.13 µM

— PMC8615749, “Human Parainfluenza Virus 3 Phosphoprotein Is a Tetramer and Shares Structural and Interaction Features with Ebola Phosphoprotein VP35” (Biomolecules, 2021)
